Measurements taken from patent US9221915 (dated 2015).
Like-named read-outs stand apart in the source and are kept apart here.

T1: cynomolgus ALK-1 cell surface (cynomolgus monkey)
T1 chain: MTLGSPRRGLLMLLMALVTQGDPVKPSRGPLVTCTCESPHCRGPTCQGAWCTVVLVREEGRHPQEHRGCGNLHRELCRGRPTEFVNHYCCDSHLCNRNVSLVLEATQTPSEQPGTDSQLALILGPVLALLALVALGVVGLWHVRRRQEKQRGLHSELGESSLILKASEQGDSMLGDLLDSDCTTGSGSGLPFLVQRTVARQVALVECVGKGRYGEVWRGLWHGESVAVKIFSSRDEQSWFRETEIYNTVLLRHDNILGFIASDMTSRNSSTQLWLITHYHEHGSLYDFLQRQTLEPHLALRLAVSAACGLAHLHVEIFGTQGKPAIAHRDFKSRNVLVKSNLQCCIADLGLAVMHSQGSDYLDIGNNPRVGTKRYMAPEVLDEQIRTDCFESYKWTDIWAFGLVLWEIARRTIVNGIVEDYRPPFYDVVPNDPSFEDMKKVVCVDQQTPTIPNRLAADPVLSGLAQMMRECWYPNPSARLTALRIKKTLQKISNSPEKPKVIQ

T2: rat ALK-1 cell surface (rat, UniProt P80203)
T2 chain: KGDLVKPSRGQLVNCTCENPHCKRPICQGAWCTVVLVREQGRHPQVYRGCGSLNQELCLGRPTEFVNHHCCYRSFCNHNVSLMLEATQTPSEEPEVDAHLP

T3: cynomolgus ALK-1/Fc (cynomolgus monkey)
T3 chain: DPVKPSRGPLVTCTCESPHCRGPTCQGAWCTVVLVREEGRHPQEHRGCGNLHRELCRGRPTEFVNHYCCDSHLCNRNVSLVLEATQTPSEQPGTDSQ

B1: 1.12.1 (antibody, V domains shown)
VH: QVQLQESGPGLVKPSQTLSLTCTVSGGSMSSGEYYWNWIRQHPGKGLEWIGYIYYSGSTYYNPSLKSRVTISVDTSKNQFSLKLSSVTAADTAVYYCARESVAGFDYWGQGTLVTVSS
VL: not shown
B2: 4.72.1 (antibody, V domains shown)
VH: QVQLQESGPGLVKPSQTLSLTCTVSGGSISSGEYYWSWIRQHPGKGLEWIGYIFYSGSTYYNPSLKSRVTISLDTSKNQFSLKLSSVTAADTAVYYCARESTDGMDVWGQGTTVTVSS
VL: EIVLTQSPGTLSLSPGERATLSCRASQSVSSSYLAWYQRKPGQAPRLLIYGVSSRATGIPDRFSGSGSGTDFTLTISRLEPEDFAVYYCQQYGSSMITFGQGTRLEIK
B3: 4.72.2 (antibody, V domains shown)
VH: QVQLQESGPGLVKPSQTLSLTCTVSGGSISSGEYYWSWIRQHPGKGLEWIGYIFYSGSTYYNPSLKSRVTISLDTSKNQFSLKLSSVTAADTAVYYCARESTDGMDVWGQGTTVTVSS
VL: EIVLTQSPGTLSLSPGERATLSCRASQSVSSSYLAWYQRKPGQAPRLLIYGVSSRATGIPDRFSGSGSGTDFTLTISRLEPEDFAVYYCQQYGSSMITFGQGTRLEIK
B4: 4.58.2 (antibody, V domains shown)
VH: QVQLQESGPGLVKPSQTLSLTCTVSGGSISSGDYYWNWIRQHPGKGLEWIGYIYYSGSTYYNPSLKSRVTISVATSKNQFSLKLSSVTAADTAVYYCAREATEGFDYWGQGTLVTVSS
VL: EIVLTQSPGTLSLSPGERATLSCRASQSVSTTYLAWYQQKPGQAPRLLIYGASSRATGIPDRFSGSGSGTDFTLTISRLEPEDFALYYCQHYGTSSITFGQGTRLEIK
B5: 4.24.2 (antibody, V domains shown)
VH: QVQLQESGPGLVKPSQTLSLTCTVSGGSISSNDYYWNWIRQHPGKGLEWIGYIYYSGSTYYNPSLKSRVTISVDTSKNQFSLKLSSVTAADTAVYYCARESTDGMDVWGQGTTVTVSS
VL: ENVLTQSPGTLSLSPGERATLSCRASQSVSSNYLAWYQQKPGQAPRLLIYGASSGATGIPDRFSGSGSGTDFTLTISRLEPEDFAVYYCQHYGSSPITFGQGTRLEIK
B6: 4.62.1 (antibody, V domains shown)
VH: QVQLQESGPGLVKPSQTLSLTCTVSGGSISSGDYYWNWIRQHPGKGLEWIGYIYYSGSTYYNPSLKSRVTISVDTSKNQFSLKLSSVTAADTAVYYCARESTDGMDVWGQGTTVTVSS
VL: not shown
B7: 5.13.3 (antibody, V domains shown)
VH: QVQLQESGPGLVKPSQTLSLTCTVSGGSISSGDYYWNWIRQHPGKGLEWIGYIYYSGSTYYNPSLKSRVTISVDTSKNQFSLKLSSVTAADTAVYYCAREGLEAFDIWGQGTMVTDSS
VL: EIVLTQSPGTLSLSPGERATLSCRASQSVSSSYLAWYQQKPGQAPRLLIYDASSRATGIPDRFSGSGSGTDFTLTISRLEPEDFAVYYCQHYGSSLLTFGGGTKVEIK
B8: 4.24.1 (antibody, V domains shown)
VH: QVQLQESGPGLVKPSQTLSLTCTVSGGSISSNDYYWNWIRQHPGKGLEWIGYIYYSGSTYYNPSLKSRVTISVDTSKNQFSLKLSSVTAADTAVYYCARESTDGMDVWGQGTTVTVSS
VL: ENVLTQSPGTLSLSPGERATLSCRASQSVSSNYLAWYQQKPGQAPRLLIYGASSGATGIPDRFSGSGSGTDFTLTISRLEPEDFAVYYCQHYGSSPITFGQGTRLEIK
B9: 4.68.1 (antibody, V domains shown)
VH: QVQLQESGPGLVKPSQTLSLTCTVSGGSISSGDYYWNWIRQHPGKGLEWIGYIYYSGSTYYNPSLKSRVTISVDTSKNQFSLKLSSVTAADTAVYYCAREDIAGFDPWGQGTLVTVSS
VL: not shown
B10: 1.12.1(D19A) (antibody, V domains shown)
VH: QVQLQESGPGLVKPSQTLSLTCTVSGGSMSSGEYYWNWIRQHPGKGLEWIGYIYYSGSTYYNPSLKSRVTISVDTSKNQFSLKLSSVTAADTAVYYCARESVAGFDYWGQGTLVTVSS
VL: not shown
B11: 4.68.2 (antibody, V domains shown)
VH: QVQLQESGPGLVKPSQTLSLTCTVSGGSISSGDYYWNWIRQHPGKGLEWIGYIYYSGSTYYNPSLKSRVTISVDTSKNQFSLKLSSVTAADTAVYYCAREDIAGFDPWGQGTLVTVSS
VL: not shown
B12: 1.162.1 (antibody, V domains shown)
VH: QVQLQESGPGLVKPSQTLSLICTVSGGSISSGEYYWSWIRQHPGKGLEWIGYIYYSGSTYYNPSLKSRLTISVDTSKNQFSLKLSSVTAADTAVYYCAREGIGAFDIWGQGTMVTVSS
VL: EIVLTQSPGTLSLSPGERATLSCRASQSVSSSYLAWYQQKPGQAPRLLIYGASSRATGIPDRFSGSGSGTDFTLTIIRLDPEDFAVYYCQRYGSSPITFGQGTRLEIK
B13: 5.13.1 (antibody, V domains shown)
VH: QVQLQESGPGLVKPSQTLSLTCTVSGGSISSGDYYWNWIRQHPGKGLEWIGYIYYSGSTYYNPSLKSRVTISVDTSKNQFSLKLSSVTAADTAVYYCAREGLEAFDIWGQGTMVTDSS
VL: EIVLTQSPGTLSLSPGERATLSCRASQSVSSSYLAWYQQKPGQAPRLLIYDASSRATGIPDRFSGSGSGTDFTLTISRLEPEDFAVYYCQHYGSSLLTFGGGTKVEIK
B14: 1.14.2 (antibody, V domains shown)
VH: QVQLQESGPGLVKPSETLSLTCTVSGGSVSSGDYYWNWIRQPPGKGLEWIGYIYYSGSTNYNPSLKSRVTISVDTSKNQFSLKLSSVTAADTAVYYCAREAVSAFDYWGQGTLVTVSS
VL: EIVLTQSPGTLSLSPGERATLSCRASQSVSSTYLAWHQQKPGQAPRLLIYGVSSRASGVPDRFSGSGSGTDFTLTISRLEPEDFAVYYCQQYGSSPITFGQGTRLEIK
B15: 4.38.1 (antibody, V domains shown)
VH: QVQLQESGPGLVKPSQTLSLTCTVSGGSISSGDYYWSWIRQHPGKGLEWIGYIYYSGSTYYNPSLKSRVTISIDTSKNQFSLKLSSVTAADTAVYYCARERDYGGGFDYWGQGTLVTVSS
VL: not shown
B16: 1.183.2 (antibody, V domains shown)
VH: QVQLQESGPGLVKPSETLSLTCTVSGGSISSYYWSWIRQPPGKGLEWIGYIYYSGSTNYNPSLKSRVTISVDTSKNQFSLKLSSVTAADTAVYYCAREDDSSGCPYFDYWGQGTLVTASS
VL: EIVMTQSPATLSVSPGERATLSCRASQSVSSNLAWYQQKPGQAPRVLIYGASTRATGIPVRFSGSGSGTEFTLTISSLQSEDFAVYYCQQYNNWPFTFGPGTKVDIK

Columns and labels:
[1] = molecular target: T1, cynomolgus ALK-1 cell surface; assay: FACS
rat ALK-1 cell surface = molecular target: T2, rat ALK-1 cell surface; assay: FACS
[2] = molecular target: T1, cynomolgus ALK-1 cell surface; assay: FACS
human ALK-1/Fc = human ALK-1/Fc (human, UniProt P37023); assay: SPR, bivalent
cynomolgus ALK-1/Fc = molecular target: T3, cynomolgus ALK-1/Fc; assay: SPR, bivalent

Binder	Kd [2]	Kd (human ALK-1/Fc)	Kd (cynomolgus ALK-1/Fc)	further results
B1	2 nM	–	–	Kd [1]: 2 nM; Kd (rat ALK-1 cell surface): > 100 nM
B2	3.8 nM	–	–	–
B3	–	0.073 nM	0.28 nM	–
B4	–	0.04 nM	0.13 nM	–
B5	–	0.07 nM	0.43 nM	–
B6	0.78 nM	–	0.019 nM	–
B7	–	–	0.19 nM	–
B8	3.1 nM	–	–	–
B9	9 nM	–	–	–
B10	–	–	–	Kd [1]: 3.8 nM
B11	–	–	0.32 nM	–
B12	3 nM	0.018 nM	0.062 nM	–
B13	1.6 nM	–	–	–
B14	–	0.076 nM	0.28 nM	–
B15	–	0.1 nM	0.15 nM	–
B16	–	0.22 nM	1.8 nM	–
